Among the data in patent US6001988, “High affinity nucleic acid ligands to lectins” (NeXstar Pharmaceuticals, Inc.) are Kd values, retold here.

The target of data set [1] is T1, L-selectin (LS-Rg) (Homo sapiens, UniProt P14151 P14151:39-332).
T1 chain: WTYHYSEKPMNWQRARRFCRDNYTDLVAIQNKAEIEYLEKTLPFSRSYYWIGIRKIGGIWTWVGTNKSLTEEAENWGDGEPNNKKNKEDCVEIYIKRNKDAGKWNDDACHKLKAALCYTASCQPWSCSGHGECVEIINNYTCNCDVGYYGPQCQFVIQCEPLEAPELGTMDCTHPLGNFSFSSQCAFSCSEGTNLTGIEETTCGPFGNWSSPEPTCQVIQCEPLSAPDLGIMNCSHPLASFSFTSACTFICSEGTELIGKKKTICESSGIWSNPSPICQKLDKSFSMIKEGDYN
The data set can be described thus: filter; room temp; 1.2 nM at 37 C; Table XIV prints 110 nM. Conditions: tags: human IgG2 Fc fusion (provided by A. Varki); label: 32P; hairpin.

In data set [2] the target is T2, P-selectin (PS-Rg) (Homo sapiens, UniProt P16109 P16109:42-321).
T2 chain: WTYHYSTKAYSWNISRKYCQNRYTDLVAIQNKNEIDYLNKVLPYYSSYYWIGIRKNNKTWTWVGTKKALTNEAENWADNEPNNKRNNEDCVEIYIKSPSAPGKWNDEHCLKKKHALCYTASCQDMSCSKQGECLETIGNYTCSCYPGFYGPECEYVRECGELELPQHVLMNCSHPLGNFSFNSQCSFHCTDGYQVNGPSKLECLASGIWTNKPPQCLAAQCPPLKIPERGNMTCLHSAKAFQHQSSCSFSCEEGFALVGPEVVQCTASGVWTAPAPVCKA
The data set is described as follows: filter; room temp, Ca/Mg buffer. The settings on record: tags: lectin, EGF and first two CRD domains fused to human IgG1 Fc (provided by A. Varki); chain copies: 2 (dimeric Fc chimera, inferred).

For data set [3], the target named is T3, E-selectin (ES-Rg) (Homo sapiens, UniProt P16581 P16581:22-556).
T3 chain: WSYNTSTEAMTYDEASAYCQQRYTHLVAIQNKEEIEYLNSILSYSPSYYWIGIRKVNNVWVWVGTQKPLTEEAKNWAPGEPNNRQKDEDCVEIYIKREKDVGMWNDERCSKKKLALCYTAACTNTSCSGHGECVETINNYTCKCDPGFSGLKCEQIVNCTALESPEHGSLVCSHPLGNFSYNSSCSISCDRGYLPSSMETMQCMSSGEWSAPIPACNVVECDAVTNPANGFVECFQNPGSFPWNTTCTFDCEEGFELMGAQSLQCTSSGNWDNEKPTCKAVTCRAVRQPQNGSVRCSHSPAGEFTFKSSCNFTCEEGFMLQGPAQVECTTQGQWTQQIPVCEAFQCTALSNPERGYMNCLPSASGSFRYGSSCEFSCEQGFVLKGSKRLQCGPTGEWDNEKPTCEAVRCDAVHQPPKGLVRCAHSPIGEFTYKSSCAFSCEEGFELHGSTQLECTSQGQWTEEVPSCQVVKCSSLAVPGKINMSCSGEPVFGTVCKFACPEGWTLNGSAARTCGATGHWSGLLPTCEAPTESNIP
The data set can be described thus: filter; room temp, Ca/Mg buffer. The settings on record: tags: extracellular domain fused to human IgG1 Fc (provided by A. Varki); chain copies: 2 (dimeric Fc chimera, inferred).

In data set [4] the target is T1, L-selectin (LS-Rg). The data set is described as follows: filter; room temp; 970 pM at 37 C. The settings on record: tags: human IgG2 Fc fusion (provided by A. Varki); label: 32P; hairpin.
In data set [5] the target is T1, L-selectin (LS-Rg). The data set can be described thus: filter; room temp; 2.0 nM at 37 C. The settings on record: tags: human IgG2 Fc fusion (provided by A. Varki); label: 32P; hairpin.
For data set [6], the target named is T1, L-selectin (LS-Rg). The data set is described as follows: filter; room temp; 260 pM at 37 C. The settings on record: tags: human IgG2 Fc fusion (provided by A. Varki); label: 32P; hairpin.
Data set [7] has as its target T1, L-selectin (LS-Rg). The data set is described as follows: filter; room temp; 3.7 nM at 37 C. Conditions: tags: human IgG2 Fc fusion (provided by A. Varki); label: 32P; hairpin.
The target in data set [8] is T1, L-selectin (LS-Rg). The data set is described as follows: filter; room temp; 1.6 nM at 37 C. Conditions: tags: human IgG2 Fc fusion (provided by A. Varki); label: 32P.
Data set [9] deals with T1, L-selectin (LS-Rg). The data set is described as follows: filter; room temp; 8.5 nM at 37 C. Conditions: tags: human IgG2 Fc fusion (provided by A. Varki); label: 32P; hairpin.
The target of data set [10] is T1, L-selectin (LS-Rg). The data set can be described thus: filter; room temp; 370 pM at 37 C. The settings on record: tags: human IgG2 Fc fusion (provided by A. Varki); label: 32P.
Data set [11] has as its target T1, L-selectin (LS-Rg). The data set can be described thus: filter; room temp; 1.0 nM at 37 C. Conditions: tags: human IgG2 Fc fusion (provided by A. Varki); label: 32P; hairpin.
Data set [12] concerns the target T1, L-selectin (LS-Rg). The data set can be described thus: filter; room temp; 3.4 nM at 37 C. The settings on record: tags: human IgG2 Fc fusion (provided by A. Varki); label: 32P.
For data set [13], the target named is T1, L-selectin (LS-Rg). The data set is described as follows: filter; room temp; 380 pM at 37 C; table prints SEQ 155, Table XII and text give 133. The settings on record: tags: human IgG2 Fc fusion (provided by A. Varki); label: 32P; hairpin.

B1: 201 (ssDNA)
DNA: CTACCTACGATCTGACTAGCCAAGGTAACCAGTACAAGGTGCTAAACGTAATGGCTTCGGCTTACTCTCATGTAGTTCC
On to B1, for which the Kd in data set [1] was 0.11 nM; in data set [2], 1000 nM; in data set [3] it was 37 nM.

B2: 193 (ssDNA)
DNA: CTACCTACGATCTGACTAGCCCAGGAGCACAGTACAAGGTGTTAAACGTAATGTCTGGTGCTTACTCTCATGTAGTTCC
The molecule B2 gave a Kd in data set [4] of 0.088 nM.

B3: 182 (ssDNA)
DNA: CTACCTACGATCTGACTAGCTAGTGCTCCACGTATTCAAGGTGCTAAACGAAGACGGCCTGCTTACTCTCATGTAGTTCC
In the case of B3, in data set [5], binding was characterised by a dissociation constant (Kd) of 0.13 nM.

B4: 230 (ssDNA)
DNA: CTACCTACGATCTGACTAGCTGCACACCTGAGGGTTACAAGGCGCTAGACGTAACCTCTCGCTTACTCTCATGTAGTTCC
Take B4: the dissociation constant Kd in data set [6] is 0.057 nM; in data set [2], 600 nM; in [3], 19 nM.

B5: 204 (ssDNA)
DNA: CTACCTACGATCTGACTAGCGGAACACGTGAGGTTTACAAGGCACTCGACGTAAACACTTGCTTACTCTCATGTAGTTCC
With B5, the figures for the dissociation constant (Kd) in [7], in data set [2] and in data set [3] were 0.1 nM, 2900 nM and 1500 nM, respectively.

B6: 239 (ssDNA)
DNA: CTACCTACGATCTGACTAGCCCACAGACAATCGCAGTCCCCGTGTAGCTCTGGGTGTCTGCTTACTCTCATGTAGTTCC
In the case of B6, the Kd in data set [8] came out at 0.17 nM.

B7: 108 (ssDNA)
DNA: CTACCTACGATCTGACTAGCGAGTAGCCAAGGCGTTAGACGGAGGGGGAATGTGAGCACAGCTTACTCTCATGTAGTTCC
For the molecule B7, in data set [9], binding was characterised by a dissociation constant (Kd) of 0.16 nM. This counts as sub-nanomolar.

B8: 174 (ssDNA)
DNA: CTACCTACGATCTGACTAGCCATTCACCATGGCCCCTTCCTACGTATGTTCTGCGGGTGGCTTACTCTCATGTAGTTCC
For B8, the Kd in [10] came out at 0.043 nM; in [2], 380 nM; in data set [3], 28 nM.

B9: 183 (ssDNA)
DNA: CTACCTACGATCTGACTAGCGGCATCCCTGAGTCATTACAAGGTTCTTAACGTAATGTACGCTTACTCTCATGTAGTTCC
Molecule B9 gave a Kd in data set [11] of 0.17 nM.

B10: 196 (ssDNA)
DNA: CTACCTACGATCTGACTAGCTGGCGGTACGGGCCGTGCACCCACTTACCTGGGAAGTGAGCTTACTCTCATGTAGTTCC
For the molecule B10, the Kd worked out at 0.13 nM in [12], 3400 nM in data set [2] and 50 nM in data set [3].

B11: 208 (ssDNA)
DNA: CTACCTACGATCTGACTAGCCACGTTTCAAGGGGTTACACGAAACGATTCACTCCTTGGCGCTTACTCTCATGTAGTTCC
With B11, binding in [13] was characterised by a dissociation constant (Kd) of 0.11 nM. That is a sub-nanomolar value.
